In data set [1] the target is taxol-stabilized microtubules of unlabeled porcine brain tubulin (porcine) (UniProt P02550). The data set is described as follows: co-sedimentation.
Data set [2] concerns the molecule itself. The data set is described as follows: native gel or EMSA.

Results on four molecules are retold here after article doi:10.1101/2021.10.05.463238 (bioRxiv, 2021).

B1: SPR2(1-500)-GFP (domain or fragment)
chain: MSTPTTSGSAAKPTRPARSSSLATRSCSNSGSLTSFQAMVELKQKILTSISKLADRDTYQIAVEDLEKTIQSLTPETLPMFLNCLYDSCSDPKPAVKKECLHLLSYVCSLHCDSTAAHLTKIIAQIVKRLKDSDSGVRDACRDTIGALSGIYLKGKEEGTNTGSASLAVGLFVKPLFEAMGEQNKVVQSGASMCMARMVESAASPPVTSFQKLCPRICKLLSNSSFLAKASLLPVVSSLSQVGAIAPQSLESLLESIHDCLGSTDWVTRKAAAETLTALASHSSGLIKEKTDSTITVLETCRFDKIKPVRESVTEALQLWKKISGKYVDGASDDSKLSASEQLGSEKNGEKRSNLADLMKKEASDGSTLSPDSASKGKGCFPEKAVGLLKKKAPVLSDKDFNPEFFQRLERRQSVEVVVPRRCKNNDEEESGLDDLNAMGSSNRLKNTQADDKQVKGRFDGNGSQARTSGDDKAGVVNGKETPGHHAPVSNTDNQSEGSF
As usually defined, the Kd is the equilibrium constant for the complex coming apart. Low values mean higher affinity, high ones lower affinity. With B1, in data set [1], the Kd was 17.4 µM.

B2: SPR2 (38-570)-GFP (domain or fragment, Arabidopsis thaliana, UniProt Q9T041 38-570, looked up)
chain: AMVELKQKILTSISKLADRDTYQIAVEDLEKTIQSLTPETLPMFLNCLYDSCSDPKPAVKKECLHLLSYVCSLHCDSTAAHLTKIIAQIVKRLKDSDSGVRDACRDTIGALSGIYLKGKEEGTNTGSASLAVGLFVKPLFEAMGEQNKVVQSGASMCMARMVESAASPPVTSFQKLCPRICKLLSNSSFLAKASLLPVVSSLSQVGAIAPQSLESLLESIHDCLGSTDWVTRKAAAETLTALASHSSGLIKEKTDSTITVLETCRFDKIKPVRESVTEALQLWKKISGKYVDGASDDSKLSASEQLGSEKNGEKRSNLADLMKKEASDGSTLSPDSASKGKGCFPEKAVGLLKKKAPVLSDKDFNPEFFQRLERRQSVEVVVPRRCKNNDEEESGLDDLNAMGSSNRLKNTQADDKQVKGRFDGNGSQARTSGDDKAGVVNGKETPGHHAPVSNTDNQSEGSFTSNRGNWSAIQRQLLQLERQQTNLMNMLQEFIGGSHDSMVTLEGRVRGLERIVEDMARDLSISSGRRANL
Regarding B2, the binding result in data set [2] is reported as “binds”.

B3: SPR2(1-570)-GFP (domain or fragment, Arabidopsis thaliana, UniProt Q9T041 1-570, looked up)
chain: MSTPTTSGSAAKPTRPARSSSLATRSCSNSGSLTSFQAMVELKQKILTSISKLADRDTYQIAVEDLEKTIQSLTPETLPMFLNCLYDSCSDPKPAVKKECLHLLSYVCSLHCDSTAAHLTKIIAQIVKRLKDSDSGVRDACRDTIGALSGIYLKGKEEGTNTGSASLAVGLFVKPLFEAMGEQNKVVQSGASMCMARMVESAASPPVTSFQKLCPRICKLLSNSSFLAKASLLPVVSSLSQVGAIAPQSLESLLESIHDCLGSTDWVTRKAAAETLTALASHSSGLIKEKTDSTITVLETCRFDKIKPVRESVTEALQLWKKISGKYVDGASDDSKLSASEQLGSEKNGEKRSNLADLMKKEASDGSTLSPDSASKGKGCFPEKAVGLLKKKAPVLSDKDFNPEFFQRLERRQSVEVVVPRRCKNNDEEESGLDDLNAMGSSNRLKNTQADDKQVKGRFDGNGSQARTSGDDKAGVVNGKETPGHHAPVSNTDNQSEGSFTSNRGNWSAIQRQLLQLERQQTNLMNMLQEFIGGSHDSMVTLEGRVRGLERIVEDMARDLSISSGRRANL
Consider B3, for which the binding result in data set [2] is reported as “binds”. Further, in data set [1], the Kd came out at 1.3 µM.

B4: full-length SPR2-GFP protein (natural protein, Arabidopsis thaliana, UniProt Q9T041 1-864, looked up)
chain: MSTPTTSGSAAKPTRPARSSSLATRSCSNSGSLTSFQAMVELKQKILTSISKLADRDTYQIAVEDLEKTIQSLTPETLPMFLNCLYDSCSDPKPAVKKECLHLLSYVCSLHCDSTAAHLTKIIAQIVKRLKDSDSGVRDACRDTIGALSGIYLKGKEEGTNTGSASLAVGLFVKPLFEAMGEQNKVVQSGASMCMARMVESAASPPVTSFQKLCPRICKLLSNSSFLAKASLLPVVSSLSQVGAIAPQSLESLLESIHDCLGSTDWVTRKAAAETLTALASHSSGLIKEKTDSTITVLETCRFDKIKPVRESVTEALQLWKKISGKYVDGASDDSKLSASEQLGSEKNGEKRSNLADLMKKEASDGSTLSPDSASKGKGCFPEKAVGLLKKKAPVLSDKDFNPEFFQRLERRQSVEVVVPRRCKNNDEEESGLDDLNAMGSSNRLKNTQADDKQVKGRFDGNGSQARTSGDDKAGVVNGKETPGHHAPVSNTDNQSEGSFTSNRGNWSAIQRQLLQLERQQTNLMNMLQEFIGGSHDSMVTLEGRVRGLERIVEDMARDLSISSGRRANLTAGFGKYNSFANYPTGKYNGRAPGERGSQTDGAMRGRMWNSDMADDWFIPPHAASRNGQAGPRRSPRSEQYENEHMGNGRRGWDNKASGTIRFGEGPSARSVWQASKDEATLEAIRVAGEDGAVPRPTRVAVAPEAEAMGDDDNEGQERDPIWVSWSNAMHSLRVGDIDAAYAEVLCAGDQHLVIKLMDKTGPSLDQMSNEIANEALNFISQFLLDHSLYDICLSWSQQLLELVLQDGADTFGVPMELKTEILYNLQDACSTMDPPEDWEGPAPEQLVVQLASVWEIDLQQFDK
As to B4, the binding result in data set [2] is reported as “binds”.
